The results in this text go back to patent US20170267764A1 (INNATE PHARMA, published 2017).

For assay [1], the target named is T1, human MICA allele MICA*008 (human, UniProt Q29983 24-297).
T1 construct: Expressed on transfected C1R cells; also called MICA*08; C1R-MICA*008
T1 chain: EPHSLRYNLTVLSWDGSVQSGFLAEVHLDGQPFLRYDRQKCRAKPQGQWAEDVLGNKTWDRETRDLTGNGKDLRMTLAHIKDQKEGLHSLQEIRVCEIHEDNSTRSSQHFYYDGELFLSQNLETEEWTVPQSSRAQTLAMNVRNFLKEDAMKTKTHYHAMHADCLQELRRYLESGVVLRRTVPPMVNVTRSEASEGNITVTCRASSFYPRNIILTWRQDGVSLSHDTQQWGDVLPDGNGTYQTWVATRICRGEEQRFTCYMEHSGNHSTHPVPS
Put plainly: flow cytometry, C1R-MICA*008 transfectant cells. The protocol:
(§1) The binding of the antibodies in Table 2 of Example 1 were tested for binding to MICA-expressing C1R transfectant cells (ATCC reference CRL-1993™) transfected with RSV.5neo vectors (GenBank (NCBI) under Accession number M83237), as described in Salih et al. (2003) Blood 102(4): […], referred to as C1R-MICA*001, C1R-MICA*004, C1R-MICA*007 and C1R-MICA*008. Binding was analyzed by flow cytometry.
(§2) Cells were harvested and stained in PBS 1×/BSA 0.2%/EDTA 2 mM buffer during 30 minutes at 4° C. using a dose-range of the anti-MICA mAbs. After two washes in staining buffer, cells were stained for 30 min at 4° C. with mouse anti-human IgG1-PE monoclonal antibodies (1/11). After two washes, stainings were acquired on a BD FACS Canto II and analyzed using the FlowJo software.

In assay [2] the target is T2, human MICA allele MICA*007 (human, UniProt Q29983 24-297).
T2 construct: Expressed on transfected C1R cells; also called MICA*07; C1R-MICA*007
T2 chain: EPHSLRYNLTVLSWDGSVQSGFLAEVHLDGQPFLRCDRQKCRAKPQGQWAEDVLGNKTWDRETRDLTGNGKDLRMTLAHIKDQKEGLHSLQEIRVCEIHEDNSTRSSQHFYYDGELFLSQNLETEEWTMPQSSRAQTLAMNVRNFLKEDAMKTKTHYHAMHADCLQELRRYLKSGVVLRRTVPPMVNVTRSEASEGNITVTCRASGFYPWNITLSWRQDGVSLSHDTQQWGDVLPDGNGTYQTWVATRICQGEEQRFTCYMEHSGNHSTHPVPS
Put plainly: flow cytometry, C1R-MICA*007 transfectant cells. The protocol:
as §1, §2
Background: Flow cytometry measures light scatter and fluorescence of single cells or particles in a stream.

The target of assay [3] is T3, human MICA allele MICA*001 (human, UniProt Q29983 24-297).
T3 construct: Expressed on transfected C1R cells; also called MICA*01; C1R-MICA*001
T3 sequence: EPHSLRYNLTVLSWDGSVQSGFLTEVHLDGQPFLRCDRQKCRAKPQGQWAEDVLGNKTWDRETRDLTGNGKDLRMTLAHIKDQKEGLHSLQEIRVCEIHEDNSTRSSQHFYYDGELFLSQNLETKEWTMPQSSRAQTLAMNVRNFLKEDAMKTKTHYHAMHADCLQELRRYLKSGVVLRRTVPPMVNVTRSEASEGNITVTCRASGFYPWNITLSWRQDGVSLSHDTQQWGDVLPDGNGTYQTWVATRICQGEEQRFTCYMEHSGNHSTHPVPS
Description: flow cytometry, C1R-MICA*001 transfectant cells. On the procedure: as §1, §2

Assay [4] addresses T4, human MICA allele MICA*004 (human, UniProt Q29983 24-297).
T4 construct: Expressed on transfected C1R cells; also called MICA*04; C1R-MICA*004
T4 chain: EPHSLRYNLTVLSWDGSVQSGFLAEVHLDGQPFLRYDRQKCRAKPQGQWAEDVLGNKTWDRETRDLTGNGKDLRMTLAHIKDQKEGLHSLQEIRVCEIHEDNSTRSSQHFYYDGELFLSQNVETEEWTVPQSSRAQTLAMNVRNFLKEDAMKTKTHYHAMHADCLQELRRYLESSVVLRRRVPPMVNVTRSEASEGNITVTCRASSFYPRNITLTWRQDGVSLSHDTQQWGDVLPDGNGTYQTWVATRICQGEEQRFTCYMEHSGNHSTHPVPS
Description: flow cytometry, C1R-MICA*004 transfectant cells. The protocol:
as §1, §2

Assay [5] addresses T3, human MICA allele MICA*001. Put plainly: cell-based or functional assay.
For assay [6], the target named is T1, human MICA allele MICA*008. Description: cell-based or functional assay.
The target in assay [7] is T3, human MICA allele MICA*001. Description: flow cytometry, C1R-MICA*001 transfectant cells; reference: parental antibody. The protocol:
as §1, §2

B1: mAb1 (antibody, V domains shown)
VH: QVQLQESGPGLVKPSETLSLTCTVSGYSITSDYAWNWIRQPPGKGLEWIGFVSYSGTTKYNPSLKSRVTISRDTSKNQFSLKLSSVTAADTAVYYCARGYGFDYWGQGTTVTVSS
VL: EIVLTQSPATLSLSPGERATLSCSATSSISSIYFHWYQQKPGQAPRLLIYRTSNLASGIPARFSGSGSGTDYTLTISSLEPEDFAVYYCQQGTTIPFTFGQGTKLEIK
notes: Produced in CHO cells as human IgG1 with huCk constant domain; also called anti-MICA mAb1; anti-MICA antibody mAb1
In the case of B1, the concentration giving a half-maximal response (EC50) (usually the concentration giving half of the maximal effect) in assay [1] was 0.0612 µg/mL; in assay [2], 0.033 µg/mL; in assay [3] it was 0.184 µg/mL; in assay [4], 0.0417 µg/mL. Besides, in assay [5], the “EC50 (read off the curve), ADCC % specific lysis [panel C1R MICA*001]” value was ~3 ng/mL. In assay [6], the “EC50 (read off the curve), ADCC % specific lysis [panel C1R MICA*008]” value was ~0.2 ng/mL. Besides, the “fold improvement in affinity compared to the parental antibody” value in assay [7] is 2.4 fold.
